This note sets out measurements from FireProtDB (doi:10.1074/jbc.m005861200).

The labels stand for the following.
B1: Cytochrome c-551, P00099 (parent)
chain: MKPYALLSLLATGTLLAQGAWAEDPEVLFKNKGCVACHAIDTKMVGPAYKDVAAKFAGQAGAEAELAQRIKNGSQGVWGPIPMPPNAVSDDEAQTLAKWVLSQK

The first data set covers variants of B1. The conditions noted are these: Pseudomonas aeruginosa (strain ATCC 15692 / DSM 22644 / CIP 104116 / JCM 14847 / LMG 12228 / 1C / PRS 101 / PAO1); pH 5; 25 °C; GdnHCl; DSC; Unknown; reversible: yes; structure 451C; whole UniProt chain shown.
With MKPYALLSLLATGTLLAQGAWAEDPEVLAKNKGCMACHAIDTKMVGPAYKDVAAKYAGQAGAEAYLAQRIKNGSQGVWGPIPMPPNAVSDDEAQTLAKWILSQK [F29A V35M F56Y E65Y V100I], the “denaturant midpoint (higher = more stable)” value is 4.39 M.

The same data set, now with this note: Pseudomonas aeruginosa (strain ATCC 15692 / DSM 22644 / CIP 104116 / JCM 14847 / LMG 12228 / 1C / PRS 101 / PAO1); pH 5; 47.3 °C; Thermal; DSC; Unknown; reversible: yes; structure 451C; whole UniProt chain shown.
By Tm is commonly meant the temperature at the midpoint of the melting transition. MKPYALLSLLATGTLLAQGAWAEDPEVLAKNKGCMACHAIDTKMVGPAYKDVAAKYAGQAGAEAYLAQRIKNGSQGVWGPIPMPPNAVSDDEAQTLAKWILSQK [F29A V35M F56Y E65Y V100I]: the Tm amounted to 80.2 °C; the “change of melting temperature, mutant - wild type (higher = more stable)” value was determined as 32.9 °C; the “heat capacity change of unfolding” value is 1.07 kcal/mol/K.

The same data set, now with this note: Pseudomonas aeruginosa (strain ATCC 15692 / DSM 22644 / CIP 104116 / JCM 14847 / LMG 12228 / 1C / PRS 101 / PAO1); pH 5; Thermal; DSC; Unknown; reversible: yes; structure 451C; whole UniProt chain shown.
Regarding MKPYALLSLLATGTLLAQGAWAEDPEVLAKNKGCMACHAIDTKMVGPAYKDVAAKYAGQAGAEAYLAQRIKNGSQGVWGPIPMPPNAVSDDEAQTLAKWILSQK [F29A V35M F56Y E65Y V100I], the Tm was 80.2 °C; the “change of melting temperature, mutant - wild type (higher = more stable)” value stood at 32.9 °C; the “heat capacity change of unfolding” value turned out to be 1.07 kcal/mol/K; the “unfolding enthalpy (calorimetric)” value was found to be 46 kcal/mol.
